Patent US20220305003A1, “METHODS OF TREATING CANCER WITH AN INHIBITOR OF ZNF827” (CHILDREN'S MEDICAL RESEARCH INSTITUTE, priority 2019, published 2022)

Biological target: T1, ZNF827 full length (Homo sapiens, UniProt Q17R98 SEQ:1-1081)
T1 sequence: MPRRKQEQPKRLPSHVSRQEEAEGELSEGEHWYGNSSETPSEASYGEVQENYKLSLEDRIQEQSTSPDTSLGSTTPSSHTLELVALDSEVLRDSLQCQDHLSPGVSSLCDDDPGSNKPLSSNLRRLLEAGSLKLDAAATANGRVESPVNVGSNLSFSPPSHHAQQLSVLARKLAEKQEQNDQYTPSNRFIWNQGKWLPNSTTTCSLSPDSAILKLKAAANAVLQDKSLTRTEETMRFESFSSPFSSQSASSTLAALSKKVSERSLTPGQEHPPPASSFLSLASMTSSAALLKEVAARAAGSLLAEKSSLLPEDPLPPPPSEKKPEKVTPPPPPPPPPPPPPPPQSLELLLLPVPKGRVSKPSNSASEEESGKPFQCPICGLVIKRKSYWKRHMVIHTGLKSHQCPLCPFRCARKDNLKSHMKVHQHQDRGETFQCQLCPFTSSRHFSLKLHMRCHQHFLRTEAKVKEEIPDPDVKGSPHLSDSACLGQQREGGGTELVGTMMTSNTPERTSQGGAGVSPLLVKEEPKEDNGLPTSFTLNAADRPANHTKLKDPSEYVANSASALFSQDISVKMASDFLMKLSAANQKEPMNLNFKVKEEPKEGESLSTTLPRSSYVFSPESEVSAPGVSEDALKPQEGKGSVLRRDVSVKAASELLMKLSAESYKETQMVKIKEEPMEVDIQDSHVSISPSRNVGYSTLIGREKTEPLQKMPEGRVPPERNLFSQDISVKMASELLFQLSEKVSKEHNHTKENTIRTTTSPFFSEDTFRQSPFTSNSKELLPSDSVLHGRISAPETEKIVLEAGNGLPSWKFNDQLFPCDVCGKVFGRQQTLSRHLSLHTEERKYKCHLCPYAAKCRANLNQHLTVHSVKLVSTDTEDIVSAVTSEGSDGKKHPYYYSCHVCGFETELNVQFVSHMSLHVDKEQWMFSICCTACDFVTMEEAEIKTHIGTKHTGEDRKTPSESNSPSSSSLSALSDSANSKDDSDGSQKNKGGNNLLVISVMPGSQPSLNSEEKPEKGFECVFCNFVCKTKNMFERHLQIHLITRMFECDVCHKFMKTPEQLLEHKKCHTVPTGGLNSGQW
Assay: EMSA; 0.8 mM ZnCl2, 100 mM KCl, poly(dI:dC), on ice
Conditions: tags: HaloTag (pHTN), expressed in HEK 293T, tag removed by HaloTEV cleavage; label: 32P (gamma)
Method: Purified proteins were quantified using a BCA assay using the Pierce™ BCA Protein Assay Kit according to the manufacturer's instructions. Equal amounts of purified proteins were incubated in binding buffer (20 mM HEPES-KOH, pH7.9, 100 mM KCl, 0.8 mM ZnCl₂, 0.2 mM EDTA, 5% glycerol, 0.5 mM DTT and 0.5 mM PMSF) with 6.25 μg/mL poly (dI:dC) and 50 ng/μL BSA on ice for 20 minutes. ˜0.12 nM (˜2.5 fmol) γ-³²P labelled DNA oligonucleotide (see Table 3) probes were added to samples and incubated on ice for another 30 minutes. Binding reactions were loaded onto an 8% native acrylamide/bisacrylamide (19:1, Biorad) gel pre-run at 100V in 0.5× TB buffer (89 mM Tris, 89 mM boric acid) for 20 minutes. Gels were electrophoresed at 150 V for 150 minutes at 4° C., dried at 65° C. for 45 minutes, and then exposed to a Phosphor screen overnight. Gel images were obtained by scanning the screens with a Typhoon FLA9500 Imager (GE Life Sciences).

TTAGGGTTAGGGTTAGGG (ssDNA) [ss telomeric G rich oligo]: binds.
